The source of these data is doi:10.1101/2025.04.04.646765, “Molecular basis for multidrug efflux by an anaerobic RND transporter” (bioRxiv, 2025).

This series deals with the molecule itself. Kind of series: cryo-EM structure.

B1: Escherichia coli multidrug transporter MdtF, wild type (MdtF-6xHis) in SMA lipid particles (natural protein)
chain: MANYFIDRPVFAWVLAIIMMLAGGLAIMNLPVAQYPQIAPPTITVSATYPGADAQTVEDSVTQVIEQNMNGLDGLMYMSSTSDAAGNASITLTFETGTSPDIAQVQVQNKLQLAMPSLPEAVQQQGISVDKSSSNILMVAAFISDNGSLNQYDIADYVASNIKDPLSRTAGVGSVQLFGSEYAMRIWLDPQKLNKYNLVPSDVISQIKVQNNQISGGQLGGMPQAADQQLNASIIVQTRLQTPEEFGKILLKVQQDGSQVLLRDVARVELGAEDYSTVARYNGKPAAGIAIKLAAGANALDTSRAVKEELNRLSAYFPASLKTVYPYDTTPFIEISIQEVFKTLVEAIILVFLVMYLFLQNFRATIIPTIAVPVVILGTFAILSAVGFTINTLTMFGMVLAIGLLVDDAIVVVENVERVIAEDKLPPKEATHKSMGQIQRALVGIAVVLSAVFMPMAFMSGATGEIYRQFSITLISSMLLSVFVAMSLTPALCATILKAAPEGGHKPNALFARFNTLFEKSTQHYTDSTRSLLRCTGRYMVVYLLICAGMAVLFLRTPTSFLPEEDQGVFMTTAQLPSGATMVNTTKVLQQVTDYYLTKEKDNVQSVFTVGGFGFSGQGQNNGLAFISLKPWSERVGEENSVTAIIQRAMIALSSINKAVVFPFNLPAVAELGTASGFDMELLDNGNLGHEKLTQARNELLSLAAQSPNQVTGVRPNGLEDTPMFKVNVNAAKAEAMGVALSDINQTISTAFGSSYVNDFLNQGRVKKVYVQAGTPFRMLPDNINQWYVRNASGTMAPLSAYSSTEWTYGSPRLERYNGIPSMEILGEAAAGKSTGDAMKFMADLVAKLPAGVGYSWTGLSYQEALSSNQAPALYAISLVVVFLALAALYESWSIPFSVMLVVPLGVVGALLATDLRGLSNDVYFQVGLLTTIGLSAKNAILIVEFAVEMMQKEGKTPIEAIIEAARMRLRPILMTSLAFILGVLPLVISHGAGSGAQNAVGTGVMGGMFAATVLAIYFVPVFFVVVEHLFARFKKA
notes: also called MdtF^WT; apo-MdtF^WT; source: E. coli C43(DE3) ΔacrAB, extracted in SMALPs, purified (Ni-NTA, SEC)
Broadly, the stoichiometry N is the number of molecules, sites or subunits per partner or assembly. Take B1: the “stoichiometry N” value came to 3.

B2: Escherichia coli multidrug transporter MdtF, single-point mutant V610F (MdtF-6xHis) in SMA lipid particles (natural protein)
chain: MANYFIDRPVFAWVLAIIMMLAGGLAIMNLPVAQYPQIAPPTITVSATYPGADAQTVEDSVTQVIEQNMNGLDGLMYMSSTSDAAGNASITLTFETGTSPDIAQVQVQNKLQLAMPSLPEAVQQQGISVDKSSSNILMVAAFISDNGSLNQYDIADYVASNIKDPLSRTAGVGSVQLFGSEYAMRIWLDPQKLNKYNLVPSDVISQIKVQNNQISGGQLGGMPQAADQQLNASIIVQTRLQTPEEFGKILLKVQQDGSQVLLRDVARVELGAEDYSTVARYNGKPAAGIAIKLAAGANALDTSRAVKEELNRLSAYFPASLKTVYPYDTTPFIEISIQEVFKTLVEAIILVFLVMYLFLQNFRATIIPTIAVPVVILGTFAILSAVGFTINTLTMFGMVLAIGLLVDDAIVVVENVERVIAEDKLPPKEATHKSMGQIQRALVGIAVVLSAVFMPMAFMSGATGEIYRQFSITLISSMLLSVFVAMSLTPALCATILKAAPEGGHKPNALFARFNTLFEKSTQHYTDSTRSLLRCTGRYMVVYLLICAGMAVLFLRTPTSFLPEEDQGVFMTTAQLPSGATMVNTTKVLQQVTDYYLTKEKDNVQSVFTFGGFGFSGQGQNNGLAFISLKPWSERVGEENSVTAIIQRAMIALSSINKAVVFPFNLPAVAELGTASGFDMELLDNGNLGHEKLTQARNELLSLAAQSPNQVTGVRPNGLEDTPMFKVNVNAAKAEAMGVALSDINQTISTAFGSSYVNDFLNQGRVKKVYVQAGTPFRMLPDNINQWYVRNASGTMAPLSAYSSTEWTYGSPRLERYNGIPSMEILGEAAAGKSTGDAMKFMADLVAKLPAGVGYSWTGLSYQEALSSNQAPALYAISLVVVFLALAALYESWSIPFSVMLVVPLGVVGALLATDLRGLSNDVYFQVGLLTTIGLSAKNAILIVEFAVEMMQKEGKTPIEAIIEAARMRLRPILMTSLAFILGVLPLVISHGAGSGAQNAVGTGVMGGMFAATVLAIYFVPVFFVVVEHLFARFKKA
notes: also called MdtF^V610F; apo-MdtF^V610F; source: E. coli C43(DE3) ΔacrAB, extracted in SMALPs, purified (Ni-NTA, SEC)
B2: the binding result is “binds”.
